According to the RNAGym collection of RNA variant scans (doi:10.7554/elife.80360):

B1: HDV Ribozyme (parent)
chain: GGCCGGCAUGGUCCCAGCCUCCUCGCUGGCGCCGGCUGGGCAACAUUCCGAGGGGACCGUCCCCUCGGUAAUGGCGAAUGGGACCCA

Variants of: B1
Assay: self-cleavage, relative activity (ratio to wild type); higher = more cleavage; co-transcriptional

Compared with G59C A71C, G59C A71G is higher in self-cleavage: 0.677 for the first, 0.831 for the second.

Compared with U60C C75A, U60C C75G is lower in self-cleavage: 0.237 for the first, 0.128 for the second.

Compared with C58G A78U, C58G A78G is higher in self-cleavage: 0.277 for the first, 0.723 for the second.

First: C58G G68A
Second: C58G G68C
The self-cleavage of the first is higher: 1.03 for the first, 0.748 for the second.

Going from G59U G81C to G59U G81A, the self-cleavage rises from 0.223 to 0.361.

Going from G59C U69A to G59C U69G, the self-cleavage falls from 1.27 to 1.11.

First: C57U U72G
Second: U60A U65C
The self-cleavage of the first is lower: 0.587 for the first, 1.08 for the second.

Going from U60A U65G to C58A A78C, the self-cleavage falls from 1.09 to 0.108.

Going from C58A A78G to C58G C61A, the self-cleavage rises from 0.697 to 1.14.

First: U60A C63U
Second: U60A C63A
The self-cleavage of the first is higher: 0.972 for the first, 0.849 for the second.

First: C58A C61A
Second: U60A G82U
The self-cleavage of the first is higher: 1.23 for the first, 0.35 for the second.

Going from U60A G82C to C58U G73A, the self-cleavage rises from 0.148 to 0.7.

Going from C58G C85A to U60A A77C, the self-cleavage falls from 1.05 to 0.305.

First: C58U C84U
Second: C58U C84A
The self-cleavage of the first is lower: 0.731 for the first, 1.02 for the second.

Going from G59U U69G to G59U U69A, the self-cleavage falls from 1.14 to 0.85.

Going from G59A A78U to G59A A78G, the self-cleavage rises from 0.346 to 0.631.

First: G59C C61A
Second: G59C C61G
The self-cleavage of the first is higher: 0.969 for the first, 0.927 for the second.

Going from G59C C61U to G59A C62A, the self-cleavage falls from 1.01 to 0.678.

First: G59A C62G
Second: C58A C84G
The self-cleavage of the first is lower: 0.502 for the first, 0.764 for the second.

Going from C58A C84U to C58A C84A, the self-cleavage falls from 0.919 to 0.644.

Going from U60A G80U to C58U C66U, the self-cleavage rises from 0.299 to 0.911.

Going from C58U C66A to G59U A71G, the self-cleavage falls from 1.22 to 1.13.

Going from U60C C85G to U60C C63U, the self-cleavage rises from 0.965 to 0.98.

First: C58A G59A
Second: C58A G59C
The self-cleavage of the first is higher: 1.1 for the first, 0.904 for the second.

Going from C58G C62G to C58G C62U, the self-cleavage rises from 0.639 to 0.73.

Compared with U60A A70U, U60C C64G is lower in self-cleavage: 1.06 for the first, 0.776 for the second.

First: C57U G80A
Second: G59A A87G
The self-cleavage of the first is lower: 0.148 for the first, 1.04 for the second.

Compared with G59A A87C, C58A G80C is lower in self-cleavage: 0.974 for the first, 0.0707 for the second.

Compared with C58U A83C, C58U A83U is higher in self-cleavage: 0.403 for the first, 0.453 for the second.

First: C58U A83G
Second: C57U G73A
The self-cleavage of the first is lower: 0.681 for the first, 0.891 for the second.

Going from C58G A71U to C58G A71G, the self-cleavage rises from 0.779 to 1.07.

Compared with G59C C85G, G59C C85A is lower in self-cleavage: 0.955 for the first, 0.937 for the second.

Going from C58A G73U to C58A G73C, the self-cleavage rises from 0.383 to 0.68.

Going from U60A G76A to C58G C86U, the self-cleavage rises from 1 to 1.25.

Compared with C57U G74C, C57U G74A is higher in self-cleavage: 0.208 for the first, 0.501 for the second.

First: G59A G81U
Second: G59A G81C
The self-cleavage of the first is higher: 0.249 for the first, 0.228 for the second.

Going from G59A C86G to G59A C86U, the self-cleavage falls from 1.01 to 0.793.

Compared with U60A G81A, G59C A70C is higher in self-cleavage: 0.514 for the first, 1.07 for the second.

Going from G59C A70U to C58A U79A, the self-cleavage falls from 1.03 to 0.789.

Going from C58A U69G to C58A U69A, the self-cleavage rises from 1.04 to 1.07.

First: C58U A70U
Second: C58U A70G
The self-cleavage of the first is higher: 1.29 for the first, 1.01 for the second.

Going from C58U A70C to C58U C62A, the self-cleavage rises from 0.831 to 0.969.

First: C58U C62U
Second: U60C A70C
The self-cleavage of the first is lower: 0.867 for the first, 1.04 for the second.

First: G59A G76C
Second: G59A G76U
The self-cleavage of the first is lower: 0.854 for the first, 1.21 for the second.

First: C58U G76U
Second: C58U G76A
The self-cleavage of the first is lower: 1.02 for the first, 1.08 for the second.

Compared with C58U G76C, U60A C86G is lower in self-cleavage: 0.935 for the first, 0.851 for the second.

Compared with G59U G68C, G59U G76U is higher in self-cleavage: 0.973 for the first, 1.08 for the second.

Compared with C58A A83G, C58A A83C is higher in self-cleavage: 0.707 for the first, 0.723 for the second.

First: C58A A71C
Second: C58A A71U
The self-cleavage of the first is lower: 0.831 for the first, 1.05 for the second.

Going from G59A C66U to G59A C66G, the self-cleavage rises from 0.849 to 1.11.

Going from C58G A87G to G59C G74A, the self-cleavage falls from 0.874 to 0.635.

Compared with G59C G74C, G59A C85A is higher in self-cleavage: 0.0678 for the first, 1.1 for the second.

Compared with G59A C85G, U60C G67A is lower in self-cleavage: 1.13 for the first, 0.776 for the second.

First: C58G C66U
Second: G59C C84A
The self-cleavage of the first is higher: 1.01 for the first, 0.912 for the second.

First: G59C C84U
Second: C58U G67A
The self-cleavage of the first is lower: 0.774 for the first, 0.909 for the second.

First: G59A A77G
Second: U60C C61A
The self-cleavage of the first is higher: 0.867 for the first, 0.831 for the second.

First: U60C C61G
Second: C58A G82A
The self-cleavage of the first is higher: 0.751 for the first, 0.614 for the second.

Compared with C58U A77U, C58U A77G is higher in self-cleavage: 0.68 for the first, 0.929 for the second.

First: C58A G68U
Second: G59U U65G
The self-cleavage of the first is higher: 1.04 for the first, 0.914 for the second.

Compared with G59U U65A, U60A A78G is lower in self-cleavage: 0.912 for the first, 0.808 for the second.

First: U60A A78C
Second: U60A A78U
The self-cleavage of the first is lower: 0 for the first, 0.249 for the second.

Compared with U60A A87G, G59A U65G is lower in self-cleavage: 0.823 for the first, 0.801 for the second.

First: G59A U65C
Second: C58U G81U
The self-cleavage of the first is higher: 1.14 for the first, 0.289 for the second.

Going from C58U G81C to C58U G81A, the self-cleavage rises from 0.31 to 0.584.

Compared with G59A U69C, C58U A78C is lower in self-cleavage: 0.846 for the first, 0.305 for the second.

Compared with C58U A78U, C58G C64G is higher in self-cleavage: 0.277 for the first, 0.853 for the second.

Going from C58A G67A to C58G U60A, the self-cleavage rises from 0.745 to 1.06.

Going from G59A G67A to C58U C75U, the self-cleavage falls from 0.979 to 0.302.

Going from C58U C75A to G59C G80U, the self-cleavage rises from 0.095 to 0.244.

First: C58U G74A
Second: G59C U79C
The self-cleavage of the first is higher: 0.462 for the first, 0.431 for the second.

First: G59C U79G
Second: G59C U79A
The self-cleavage of the first is lower: 0.712 for the first, 0.987 for the second.

First: U60A G73C
Second: U60A G73A
The self-cleavage of the first is lower: 0.532 for the first, 0.751 for the second.

First: C58G G82C
Second: C58G G82A
The self-cleavage of the first is higher: 0.302 for the first, 0.277 for the second.

Going from G59A C63A to G59C C86U, the self-cleavage falls from 1.07 to 1.01.

Compared with G59C C86G, G59C C86A is lower in self-cleavage: 1.06 for the first, 0.914 for the second.

Compared with U60A C75G, C58A U60G is higher in self-cleavage: 0.0978 for the first, 0.831 for the second.

Compared with C58A U60C, G59U C75U is lower in self-cleavage: 1.17 for the first, 0.145 for the second.

First: C58U U69G
Second: G59U G82A
The self-cleavage of the first is higher: 0.965 for the first, 0.338 for the second.

Going from G59U G82C to C58U C86U, the self-cleavage rises from 0.228 to 0.969.

Compared with C58U C86A, C58U C86G is lower in self-cleavage: 1.01 for the first, 0.895 for the second.

Compared with C58U G68U, C58U G68C is lower in self-cleavage: 1.07 for the first, 0.95 for the second.

Compared with G59A A83G, G59A A83U is lower in self-cleavage: 0.748 for the first, 0.59 for the second.

Going from G59A A83C to G59U U72C, the self-cleavage rises from 0.554 to 0.599.

For G59U U72G, the self-cleavage was 0.776.
